Reference: a protein production outcome set (Wang et al. 2014)

Experiment: label from the status in PepcDB records

Row | Sequence | protein production
1 | NDNSPRFEKSVYEADLAENSAPGTPILQLRAADLDVGVNGQIEYVFGAATESVRRLLRLDETSGWLSVLHRIDREEVNQLRFTVMARDRGQPPKTDKATVVLNIKDENDNVP | not failed
2 | MRLTTLWQNRSPGDRHLSTYFCFAAVRLLLVFVPQLGYVHPDEFFQSVEVMTGDHFRLEHTRTWEFNNSLPVRSIVLPFALLRIPWSFYEFVAECLKAWWQLELLGTYAYVVFPRLIYTLISFSNDYCLFRICRLYGLRFEIRLLAMGSSWILLVFGTRTFSNSLEMAMCSWLLCLVSECMLRTNTVVYKKEFLEEKYDKAESISERVRIWKLKNSLPAHNLQHLMAMSTICVAGVFNRPTFLLFGAPMVFFWLLRGMGTRSITFRDFNLRIALFCLCALPALVLFIFCDSLYYQHLTLGELHMMHLSIDNFVFTPWNFIKANLDSAQTASHGVHPCYVHLMVNMPMLFNVLALASLGAFAQLLLRFFRAEYQVLPRFQSIVSLMSGAIFVPLFFLSLINHQEPRFLLPVTFPLILLHAPKLITGFSAKYPFQKDHPLLRLFYDKLLSSKASGPYLLKIWYVSNVALTLFFGFIHQAGVYPLAADISHVIATKPAATHVHLITSHIYSLPLHLINIPSSRVLHFNRLTHQRYRRPRDFYMYEYGGLPLDSLLQKVKLISGSCEVKKSGPSRRRYKLYLAIPASLSADLHEALVHSNASSYLNFELLKVFYPHLSTEAFPHLQGRHPCDVDAPHWAHDDLRGTCSAEQLPAFSFAYLNKQFSSFVHQLGLALYEIDVTRNKPRYVSLAYSGCSPTKGYFLLFIQFLICLALCIAAAQAGFIASPVTTYAAAPAYAASYAAPVAYSAPVATYAAAAPAYSTYAAAAPAYSTYAAAAPAYSTYAAAAPAYTASVYSAPAYTAPVTTYAAGAAYAAPVTTYSAPAIVSPILKKK | failed
3 | MVPHHWASLWNRQLALQTSVRRRLRKEIDLIRFLKATAAADELTGIVGIAAQVIEALGEWGVGLLTLLETVFPPIPSEVILPLAGFLTQQGSMNLILVFVTSTLGAYAGAMLLYWLGYKVGLERSIKLLSKLPLVDREDFEKAAEWFERHGKSAIFFGRLLPGVRSLISLPAGAERMNLATFSVFTVAGTGLWNALLIGAGALLGKQYHLVDQYSRFLNYAVYAGLAALLVWLIIRRVKKRKESTR | failed
4 | MNSNIYAVIVTYNPELKNLNALITELKEQNCYVVVVDNRTNFTLKDKLADIEKVHLICLGRNEGIAKAQNIGIRYSLEKGAEKIIFFDQDSRIRNEFIKKLSCYMDNENAKIAGPVFIDRDKSHYYPICNIKKNGLREKIHVTEGQTPFKSSVTISSGTMVSKEVFEIVGMMDEELFIDYVDTEWCLRCLNYGILVHIIPDIEMVHAIGDKSVKICGINIPIHSPVRRYYRVRNAFLLLRKNHVPLLLSIREVVFSLIHTTLIIATQKNKIEYMKKHILATLDGIRGITGGGRYNA | failed
5 | MVQEPTQDHLIGTTVDGRYTVRSRLASGGMSTVYLATDQRLERDVALKVLHPHLANDPTFLERLSREAKAAASLSHPHIVGVLDQGEDGTIAYLVMEYVKGHTLRDTLNEQGALQPRLALALIDPVIEGLAAAHRSGLIHRDVKPENVLIADDGRIKVGDFGLARAISANTSTGALIGTVAYLAPELVLGQPADARSDIYSAGIMLYEMLTGKQPYAGDSPIQVAYQHVNAAVGRPSDAAPGLAEDLDELVQWCTAVDAENRPVDGTALLTELRHIRTTLTDEDLDRRQAPSQPPGSPAAATAAAALGGPGGNPTEAIPATASPTEMISHQSNPTTIMAAAGSGRPQTAAVGAVNHEVVRQPGKRELKRLERQEIKDRARAAATPSRPLREGNPRRRGIIWTIVIVILATLAASAGWFFGMGPGSPGTVPDVKNKTVAEAQQLLRTAGFQSEPKDVFDDDILAGLAVGTEPESGAEVRKFQPITLFVSKGAQLFALPTLTGGSLDEAKTALNAAEMALGNVTQAFDEKVPAGVVISQDPAKGTEVRHGTPVSLVVSKGPQPIPVPDVRGLAQDAAVKALQDAGLTAVIAPETVNDKTVPKGAVVSQVPANGTLVRGEAVTLTVSKGPKLVKVPSFIGKQADEAEKELKKLGFKVQVNKVLGGFFGTVRDQNPVNTEIPEDSVVTLTVV | failed
